One test addresses T1, P185 BCR-ABL (Homo sapiens, UniProt P00519+P11274).
T1 construct: endogenous in cells; host or cells: SUP-B15 (Ph1-positive ALL cell line)
Put plainly: Bcr-Abl autokinase (immune complex kinase) assay. The test is classed as biochemical. Particulars: for Inhibition of Bcr-Abl tyrosine kinase activity (autophosphorylation): 50 μg of peptide added to P185 BCR-ABL immune complexes from SUP B15 cells. As to the method: FIG. 21. Phosphoserine Bcr peptide pS354 S17K (SEQ ID NO:22) inhibits the Bcr-Abl tyrosine kinase activity. The SUP B15 cell line derived from a patient with Bcr-Abl-positive acute lymphocytic leukemia (ALL) were grown in culture; cells were lysed and the Bcr-Abl oncoprotein immunoprecipitated with a monoclonal antibody p6D (anti-Abl 51-64). The immune complexes were mixed with either no peptide or 50 μg of peptide prior to addition of the kinase activating buffer containing [γ-^32P]ATP. After the assay was completed, the proteins were fractionated by SDS gel electrophoresis. Radioactive proteins were detected by phosphoimage analysis. Lane 1, no peptide; lane 2, 50 μg of pS354 S17K; lane 3, 50 μg of unphosphorylated S17K.
FIG. 23A, FIG. 23B and FIG. 23C. A Bcr fragment expressed in COS-1 cells inhibits the Bcr-Abl tyrosine kinase in vitro. In these studies, the Bcr fragment was expressed in COS-1 cells, then isolated by immunoprecipitation with anti-Bcr 181-194 antibody. This immune complex was isolated by binding to protein A Sepharose beads; these immune complexes were added to protein A Sepharose beads containing P185 BCR-ABL harvested from SUP B15 leukemic cells with anti-Abl 51-64. The autokinase reaction was performed to measure the tyrosine kinase activity of Bcr-Abl.
Immunokinase Assay: The immunokinase assays were performed as described by Campbell et al. (1990) with modifications. The cells are lysed by homogenizing the cell pellet in two different lysis buffers at 0° C. in a tight fitting Wheaton homogenizer (either 0.1% Triton-X100, 100 mM NaCl, 5 mM EDTA, 10 mM sodium phosphate, pH 7.2 or 1% Triton-X100, 100 mM NaCl, 0.5% sodium deoxycholate, 0.1% SDS, 5 mM EDTA, 10 mM sodium phosphate pH 7.2). Both buffers were supplemented with 30 mM sodium pyrophosphate, 100 KIU aprotinin, 1 mM benzamidine, 1 mM phenylmethylsulfonyl fluoride and 0.2 mM sodium vanadate.
Immunoprecipitation reactions were carried out utilizing 20-40 μl of the respective anti-peptide rabbit sera or 5 μl of monoclonal antibody at 0° C. for 1 hour. Blocked immunoprecipitations refer to those immunoprecipitation reactions performed with antisera that have been preincubated with excess cognate peptide to specifically block the anti-peptide antibodies.
The resulting antigen-antibody immunoprecipitates were collected with 30 μl of 50% protein A-Sepharose (Pharmacia, Uppsala, Sweden), pelleted and washed with RIPA buffer (0.1% Triton X-100, 0.05% SDS, 0.5% sodium deoxycholate, 100 mM NaCl in 10 mM phosphate buffer, pH 7.2), wash buffer (0.1% Triton X-100, 100 mM NaCl, in 10 mM phosphate buffer, pH 7.2) and finally with 50 mM Tris buffer, pH 7.2. […]

A further test has as its target T2, P210 BCR-ABL (Homo sapiens, UniProt P00519+P11274).
T2 construct: expressed in transfected cells; host or cells: COS-1
Put plainly: In vivo tyrosine phosphorylation of truncated Bcr proteins in COS-1 cells, anti-pTyr Western blot. In kind it is cell-based. Particulars: COS-1 cells coexpressing p210 Bcr-Abl. The source says: FIG. 6A and FIG. 6B. In vivo tyrosine phosphorylation of truncated Bcr first exon sequences by Bcr-Abl. COS-1 vectors expressing Bcr150, Bcr221, and Bcr413 proteins, respectively, were expressed in COS-1 cells in the presence and absence of […].
The next tyrosine is at residue 177, and it is expected to be phosphorylated by Bcr-Abl (Puil et al., 1994). Bcr221 is tyrosine phosphorylated, but as with Bcr413, only in the presence of Bcr-Abl.
Transient transfections of COS1 cells were performed by the diethylaminoethyl (DEAE)-Dextran procedure. Transfection was initiated when COS1 cells were about 60%-80% confluent. After washing once with phosphate-buffered saline (PBS) and once with Tris-buffered Saline-0.02% Dextrose (TBS-D), cells were incubated with TBS-D containing 0.2 mg/ml DEAE-Dextran and 2 μg/ml of each added plasmid. The supernatant was then removed after 5-10 minutes when the cells started to round up and shrink.
After washing once with TBS-D and once with PBS, the cells were incubated in DMEM supplemented with 10% fetal calf serum and 100 μg/ml of chloroquine at 37° C. The chloroquine containing media was removed after 3-5 hours and the cells were washed three times with DMEM without fetal calf serum. The cells were then incubated in DMEM supplemented with 10% fetal calf serum at 37° C. for 2-3 days before harvesting.
COS-1 vectors expressing Bcr159, Bcr221, and Bcr413 proteins, respectively, were expressed in COS-1 cells in the presence and absence of p210 Bcr-Abl.
Background: A western blot detects proteins with antibodies after separation by electrophoresis.

The test system of a further test is casein. Put plainly: Immune complex kinase assay of mutant P160 BCR, transphosphorylation of casein. The test is classed as biochemical. To be noted: mutant P160 BCR expressed in COS-1 cells. An excerpt: Mutant forms of P160^BCR were expressed in COS-1 cells and tested for serine/threonine kinase activities in immune complex kinase assays.
Using the intensities of the P160^BCR bands as an indication of the amount of active P160^BCR in the immune complex and the intensities of the casein bands as a measure of transphosphorylation activity, the transphosphorylation activity of the Y360F Bcr mutant was reduced about sevenfold, compared with that of the wild type. Similarly, the Y360F Bcr mutant was also defective in transphosphorylating another exogenous substrate, histone H1.
The amounts of Bcr within these immune complexes were quantitated in two ways. In a first method, the amounts of Bcr mutants would be underestimated by about 10%, compared with that of the wild type. On the basis of these measurements, the specific activity of transkinase activity (casein intensity/P160^BCR intensity) of the Y360F Bcr mutant (0.03) was reduced more than 20-fold in this study, compared with that of the wild type.
The second method of estimating the amounts of P160^BCR in immune complexes involved the Western blotting of these immune complexes with an anti-Bcr antibody. The specific activity of Y360F was reduced by about sixfold. […] By using autophosphorylation of the Bcr protein as a measure of its relative amount, the reduction of Bcr's transkinase by the Y360F mutation was about sevenfold, confirming the results obtained by the Western blot method.

Non-standard residues stand in square brackets, D forms with d. No end group written: not given here. pS = N[C@@H](COP(=O)(O)O)C(=O)O

T1 sequence (P11274+P00519 fused): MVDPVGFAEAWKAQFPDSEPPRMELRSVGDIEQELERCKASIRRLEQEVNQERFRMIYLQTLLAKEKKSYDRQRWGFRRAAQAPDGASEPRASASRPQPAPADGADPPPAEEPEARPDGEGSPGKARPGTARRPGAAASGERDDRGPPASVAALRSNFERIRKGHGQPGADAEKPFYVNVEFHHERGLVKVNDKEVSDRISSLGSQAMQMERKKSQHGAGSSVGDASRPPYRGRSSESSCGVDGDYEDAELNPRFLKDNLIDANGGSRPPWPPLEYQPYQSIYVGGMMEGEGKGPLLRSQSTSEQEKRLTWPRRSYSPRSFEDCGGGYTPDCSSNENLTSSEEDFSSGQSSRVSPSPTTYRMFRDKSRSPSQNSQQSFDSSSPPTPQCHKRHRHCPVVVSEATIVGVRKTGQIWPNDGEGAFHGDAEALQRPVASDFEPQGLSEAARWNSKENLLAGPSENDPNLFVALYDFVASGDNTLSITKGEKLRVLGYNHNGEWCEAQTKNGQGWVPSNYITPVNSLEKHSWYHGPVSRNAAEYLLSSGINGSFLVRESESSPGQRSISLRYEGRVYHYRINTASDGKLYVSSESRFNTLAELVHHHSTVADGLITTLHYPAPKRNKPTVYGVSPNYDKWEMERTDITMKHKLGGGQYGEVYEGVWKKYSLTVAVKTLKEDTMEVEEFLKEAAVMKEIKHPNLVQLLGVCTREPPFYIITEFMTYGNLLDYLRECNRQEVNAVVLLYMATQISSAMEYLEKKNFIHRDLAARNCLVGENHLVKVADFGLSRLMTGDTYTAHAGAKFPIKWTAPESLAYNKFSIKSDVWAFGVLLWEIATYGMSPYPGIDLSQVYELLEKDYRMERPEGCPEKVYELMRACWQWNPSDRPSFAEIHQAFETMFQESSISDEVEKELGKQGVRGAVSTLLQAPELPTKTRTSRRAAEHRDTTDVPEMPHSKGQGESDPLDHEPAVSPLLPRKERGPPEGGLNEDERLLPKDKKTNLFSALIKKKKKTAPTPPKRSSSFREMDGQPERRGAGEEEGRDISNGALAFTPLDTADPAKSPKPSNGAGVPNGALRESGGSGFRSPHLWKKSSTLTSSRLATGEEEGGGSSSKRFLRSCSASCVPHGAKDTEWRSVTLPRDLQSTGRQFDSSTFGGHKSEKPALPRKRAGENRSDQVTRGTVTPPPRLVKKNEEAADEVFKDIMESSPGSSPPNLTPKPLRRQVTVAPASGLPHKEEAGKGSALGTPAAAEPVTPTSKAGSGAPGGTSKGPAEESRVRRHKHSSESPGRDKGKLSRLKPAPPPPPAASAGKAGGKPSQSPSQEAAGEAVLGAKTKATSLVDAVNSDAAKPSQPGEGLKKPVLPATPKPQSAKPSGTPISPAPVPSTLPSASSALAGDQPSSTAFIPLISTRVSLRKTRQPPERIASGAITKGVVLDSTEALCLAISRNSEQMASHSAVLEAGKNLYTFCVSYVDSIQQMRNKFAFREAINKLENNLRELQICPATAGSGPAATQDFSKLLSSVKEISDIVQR
T2 sequence (P11274+P00519 fused): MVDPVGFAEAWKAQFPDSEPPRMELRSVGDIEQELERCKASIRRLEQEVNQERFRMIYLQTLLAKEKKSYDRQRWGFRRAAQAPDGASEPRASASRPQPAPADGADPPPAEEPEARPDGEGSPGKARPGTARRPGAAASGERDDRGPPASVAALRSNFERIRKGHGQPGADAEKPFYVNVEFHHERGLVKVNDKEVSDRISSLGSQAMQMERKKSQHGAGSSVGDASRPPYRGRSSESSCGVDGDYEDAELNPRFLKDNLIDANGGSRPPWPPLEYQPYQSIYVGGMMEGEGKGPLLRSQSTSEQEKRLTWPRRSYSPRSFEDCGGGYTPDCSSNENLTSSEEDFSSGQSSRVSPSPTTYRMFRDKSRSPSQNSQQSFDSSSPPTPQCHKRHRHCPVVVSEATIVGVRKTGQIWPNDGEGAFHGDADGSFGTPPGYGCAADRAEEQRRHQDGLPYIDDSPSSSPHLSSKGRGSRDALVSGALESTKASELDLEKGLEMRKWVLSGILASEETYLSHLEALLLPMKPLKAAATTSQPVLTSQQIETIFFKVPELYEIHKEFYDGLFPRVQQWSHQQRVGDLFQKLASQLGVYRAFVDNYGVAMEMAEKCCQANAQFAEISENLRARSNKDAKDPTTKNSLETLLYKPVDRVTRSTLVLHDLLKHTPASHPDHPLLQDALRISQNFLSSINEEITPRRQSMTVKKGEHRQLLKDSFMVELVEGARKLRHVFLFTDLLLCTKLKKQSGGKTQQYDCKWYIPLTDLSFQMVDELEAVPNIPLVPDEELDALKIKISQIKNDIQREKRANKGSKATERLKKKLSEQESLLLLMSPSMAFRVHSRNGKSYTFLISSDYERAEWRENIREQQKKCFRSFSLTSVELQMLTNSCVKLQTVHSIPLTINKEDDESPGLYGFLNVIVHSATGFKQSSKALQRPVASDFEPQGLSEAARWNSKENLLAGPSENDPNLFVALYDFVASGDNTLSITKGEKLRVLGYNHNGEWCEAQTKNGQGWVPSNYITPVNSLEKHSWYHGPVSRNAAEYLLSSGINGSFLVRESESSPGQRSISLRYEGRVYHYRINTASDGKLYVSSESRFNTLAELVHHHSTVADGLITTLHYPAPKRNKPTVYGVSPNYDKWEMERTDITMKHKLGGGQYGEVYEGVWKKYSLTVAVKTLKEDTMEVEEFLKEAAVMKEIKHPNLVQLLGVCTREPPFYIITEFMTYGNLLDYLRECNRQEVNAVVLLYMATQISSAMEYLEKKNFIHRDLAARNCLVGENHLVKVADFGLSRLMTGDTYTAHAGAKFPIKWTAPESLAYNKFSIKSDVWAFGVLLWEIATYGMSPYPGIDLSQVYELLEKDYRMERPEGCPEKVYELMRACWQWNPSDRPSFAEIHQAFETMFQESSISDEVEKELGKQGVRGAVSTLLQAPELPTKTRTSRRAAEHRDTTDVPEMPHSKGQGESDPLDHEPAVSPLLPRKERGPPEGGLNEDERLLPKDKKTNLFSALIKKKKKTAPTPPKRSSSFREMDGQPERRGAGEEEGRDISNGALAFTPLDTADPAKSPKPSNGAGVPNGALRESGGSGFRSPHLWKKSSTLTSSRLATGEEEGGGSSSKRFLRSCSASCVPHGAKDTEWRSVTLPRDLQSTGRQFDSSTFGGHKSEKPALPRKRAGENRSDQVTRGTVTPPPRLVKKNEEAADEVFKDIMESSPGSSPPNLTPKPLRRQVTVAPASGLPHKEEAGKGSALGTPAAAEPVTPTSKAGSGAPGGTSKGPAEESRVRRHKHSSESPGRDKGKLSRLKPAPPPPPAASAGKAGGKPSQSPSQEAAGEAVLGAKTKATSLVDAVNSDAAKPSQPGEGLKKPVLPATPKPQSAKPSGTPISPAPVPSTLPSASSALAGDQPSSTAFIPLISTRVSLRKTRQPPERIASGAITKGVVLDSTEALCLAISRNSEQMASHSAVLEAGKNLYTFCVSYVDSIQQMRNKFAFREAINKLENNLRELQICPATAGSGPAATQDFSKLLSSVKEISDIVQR

“350-SSRVpS*PSPTTYRMFRDK-366 (SSRV[pS]PSPTTYRMFRDK) [pS354 S17K]”: the “Inhibition of Bcr-Abl tyrosine kinase activity (autophosphorylation)” value with P185 BCR-ABL is “strongly inhibited”.
The same measure, in the same setting: as for “unphosphorylated S17K: unphosphorylated form of Bcr peptide S17K, Bcr residues 350 to 366 (SSRVSPSPTTYRMFRDK)”, the entry is “little affect”.

B1: Bcr413: amino acids 1-413 of Bcr, N-terminal fragment (protein)
chain: MVDPVGFAEAWKAQFPDSEPPRMELRSVGDIEQELERCKASIRRLEQEVNQERFRMIYLQTLLAKEKKSYDRQRWGFRRAAQAPDGASEPRASASRPQPAPADGADPPPAEEPEARPDGEGSPGKARPGTARRPGAAASGERDDRGPPASVAALRSNFERIRKGHGQPGADAEKPFYVNVEFHHERGLVKVNDKEVSDRISSLGSQAMQMERKKSQHGAGSSVGDASRPPYRGRSSESSCGVDGDYEDAELNPRFLKDNLIDANGGSRPPWPPLEYQPYQSIYVGGMMEGEGKGPLLRSQSTSEQEKRLTWPRRSYSPRSFEDCGGGYTPDCSSNENLTSSEEDFSSGQSSRVSPSPTTYRMFRDKSRSPSQNSQQSFDSSSPPTPQCHKRHRHCPVVVSEATIVGVRKTGQI
For B1, the “Tyrosine phosphorylation by Bcr-Abl in cells” value in the test with P210 BCR-ABL is reported as “induces tyrosine phosphorylation”.

B2: Bcr fragment (64-413): Bcr sequences from amino acid 64 to 413 with both A and B serine-rich boxes, expressed in COS-1 cells (protein)
chain: AKEKKSYDRQRWGFRRAAQAPDGASEPRASASRPQPAPADGADPPPAEEPEARPDGEGSPGKARPGTARRPGAAASGERDDRGPPASVAALRSNFERIRKGHGQPGADAEKPFYVNVEFHHERGLVKVNDKEVSDRISSLGSQAMQMERKKSQHGAGSSVGDASRPPYRGRSSESSCGVDGDYEDAELNPRFLKDNLIDANGGSRPPWPPLEYQPYQSIYVGGMMEGEGKGPLLRSQSTSEQEKRLTWPRRSYSPRSFEDCGGGYTPDCSSNENLTSSEEDFSSGQSSRVSPSPTTYRMFRDKSRSPSQNSQQSFDSSSPPTPQCHKRHRHCPVVVSEATIVGVRKTGQI
Take B2: in the test with P185 BCR-ABL (immune complexes on protein A Sepharose beads added to P185 BCR-ABL immunoprecipitates from SUP B15), the “Inhibition of Bcr-Abl tyrosine kinase activity (P185 autokinase)” value is “potent inhibitor”. The “Inhibitory activity towards Bcr-Abl kinase after boiling” value with P185 BCR-ABL (immunoprecipitate boiled for a few minutes prior to addition to the kinase assay) is “strongly decreased”.

B3: Bcr Y283F: P160 BCR with tyrosine 283 to phenylalanine mutation (protein, UniProt P11274 1-1271, looked up, variant Y283F)
Breakpoint cluster region …: MVDPVGFAEAWKAQFPDSEPPRMELRSVGDIEQELERCKASIRRLEQEVNQERFRMIYLQTLLAKEKKSYDRQRWGFRRAAQAPDGASEPRASASRPQPAPADGADPPPAEEPEARPDGEGSPGKARPGTARRPGAAASGERDDRGPPASVAALRSNFERIRKGHGQPGADAEKPFYVNVEFHHERGLVKVNDKEVSDRISSLGSQAMQMERKKSQHGAGSSVGDASRPPYRGRSSESSCGVDGDYEDAELNPRFLKDNLIDANGGSRPPWPPLEYQPYQSIFVGGMMEGEGKGPLLRSQSTSEQEKRLTWPRRSYSPRSFEDCGGGYTPDCSSNENLTSSEEDFSSGQSSRVSPSPTTYRMFRDKSRSPSQNSQQSFDSSSPPTPQCHKRHRHCPVVVSEATIVGVRKTGQIWPNDGEGAFHGDADGSFGTPPGYGCAADRAEEQRRHQDGLPYIDDSPSSSPHLSSKGRGSRDALVSGALESTKASELDLEKGLEMRKWVLSGILASEETYLSHLEALLLPMKPLKAAATTSQPVLTSQQIETIFFKVPELYEIHKEFYDGLFPRVQQWSHQQRVGDLFQKLASQLGVYRAFVDNYGVAMEMAEKCCQANAQFAEISENLRARSNKDAKDPTTKNSLETLLYKPVDRVTRSTLVLHDLLKHTPASHPDHPLLQDALRISQNFLSSINEEITPRRQSMTVKKGEHRQLLKDSFMVELVEGARKLRHVFLFTDLLLCTKLKKQSGGKTQQYDCKWYIPLTDLSFQMVDELEAVPNIPLVPDEELDALKIKISQIKNDIQREKRANKGSKATERLKKKLSEQESLLLLMSPSMAFRVHSRNGKSYTFLISSDYERAEWRENIREQQKKCFRSFSLTSVELQMLTNSCVKLQTVHSIPLTINKEDDESPGLYGFLNVIVHSATGFKQSSNLYCTLEVDSFGYFVNKAKTRVYRDTAEPNWNEEFEIELEGSQTLRILCYEKCYNKTKIPKEDGESTDRLMGKGQVQLDPQALQDRDWQRTVIAMNGIEVKLSVKFNSREFSLKRMPSRKQTGVFGVKIAVVTKRERSKVPYIVRQCVEEIERRGMEEVGIYRVSGVATDIQALKAAFDVNNKDVSVMMSEMDVNAIAGTLKLYFRELPEPLFTDEFYPNFAEGIALSDPVAKESCMLNLLLSLPEANLLTFLFLLDHLKRVAEKEAVNKMSLHNLATVFGPTLLRPSEKESKLPANPSQPITMTDSWSLEVMSQVQVLLYFLQLEAIPAPDSKRQSILFSTEV
With B3, in the test on casein, the “Ability to transphosphorylate casein compared with wild-type Bcr” value is given as “not significantly altered”.

B4: Bcr221: amino acids 1-221 of Bcr, N-terminal fragment (protein)
chain: MVDPVGFAEAWKAQFPDSEPPRMELRSVGDIEQELERCKASIRRLEQEVNQERFRMIYLQTLLAKEKKSYDRQRWGFRRAAQAPDGASEPRASASRPQPAPADGADPPPAEEPEARPDGEGSPGKARPGTARRPGAAASGERDDRGPPASVAALRSNFERIRKGHGQPGADAEKPFYVNVEFHHERGLVKVNDKEVSDRISSLGSQAMQMERKKSQHGAGS
For the molecule B4, the “Tyrosine phosphorylation by Bcr-Abl in cells” value with P210 BCR-ABL is on record as “induces tyrosine phosphorylation”.

(Values after patent publication US6537804B1, “BCR-ABL directed compositions and uses for inhibiting Philadelphia chromesome stimulated cell growth” (Board of Regents, The University of Texas Systems, priority 1995, dated 2003).)
